In paper PMC11496786:

Legend:
[1] = biological target: mutant outer-arm dynein (OAD) of the Chlamydomonas mutant 214 (oda6E279K), carrying IC2 E279K (Chlamydomonas reinhardtii (endogenous in flagellar axonemes)) (UniProt Q39610)
[2] = biological target: wild-type outer-arm dynein (OAD) of Chlamydomonas (Chlamydomonas reinhardtii (endogenous in flagellar axonemes)) (UniProt Q39610)

| microtubule sliding speed in microtubule bundles formed with OAD, on perfusion with 1 mM ATP [1] | microtubule sliding speed in microtubule bundles formed with OAD, on perfusion with 1 mM ATP [2] | Substance |
| --- | --- | --- |
| 4.3 μm/sec |  | mutant outer-arm dynein (OAD) of the Chlamydomonas mutant 214 (oda6E279K), carrying IC2 E279K (from UniProt Q39610 1-4499; Q39565 1-4568; Q39575 1-4485; Q39578 1-683; P27766 1-567) (complex) |
|  | 35.3 μm/sec | wild-type outer-arm dynein (OAD) of Chlamydomonas (from UniProt Q39610 1-4499; Q39565 1-4568; Q39575 1-4485; Q39578 1-683; P27766 1-567) (complex) |
